Test results from patent publication US20140221623A1 (Ablynx, published 2014).
Numbering of substitutions follows the chain as printed. Values belong to the binder of their own block, whether it stands above or below them.

Key:
Human soluble IL6-R [1] = molecular target: T1, Human soluble IL6-R (human, UniProt P08887 20-358); assay: SPR (Biacore), off-rate
T1 construct: Bought soluble receptor; biotinylated in some Alphascreen assays; also called sIL6-R; hIL-6R
T1 sequence (looked up): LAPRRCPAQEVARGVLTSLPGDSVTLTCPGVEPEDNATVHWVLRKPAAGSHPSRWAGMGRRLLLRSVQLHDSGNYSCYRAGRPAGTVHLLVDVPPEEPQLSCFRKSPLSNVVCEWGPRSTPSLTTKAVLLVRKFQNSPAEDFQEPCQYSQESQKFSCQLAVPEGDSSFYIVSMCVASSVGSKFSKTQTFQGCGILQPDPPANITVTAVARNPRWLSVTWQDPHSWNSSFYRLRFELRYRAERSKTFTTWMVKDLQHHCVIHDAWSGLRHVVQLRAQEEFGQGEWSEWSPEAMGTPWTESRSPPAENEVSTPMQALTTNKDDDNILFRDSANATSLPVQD

Human soluble IL6-R [2] = molecular target: T1, Human soluble IL6-R; assay: SPR (Biacore 3000), IL6-R on CM5 chip

koff (Human soluble IL6-R [1]): 0.00124 s⁻¹
B1: PMP 28 A2 (VHH)
VHH: EVQLVESGGGLVQPGGSLRLSCAASGFTFGSYDMSWVRQAPGKGPEWVSAINSGGGSTYYADSVKGRFTISRDNAKNTLYLQMNSLKPEDTAVYYCATDWRYSDYDLPLPPPGDYWGQGTQVTVSS
notes: also called PMP28A2(t)

koff (Human soluble IL6-R [1]): 0.00124 s⁻¹
B2: PMP 31 B11 (VHH)
VHH: B1 VHH
notes: also called PMP31B11(t)

koff (Human soluble IL6-R [1]): 0.00185 s⁻¹
B3: PMP 28 D4 (VHH)
VHH: B1 VHH
notes: also called PMP28D4(t)

koff (Human soluble IL6-R [1]): 0.00247 s⁻¹
B4: PMP 28 H6 (VHH)
VHH: B1 VHH
notes: also called PMP28H6(t)

koff (Human soluble IL6-R [1]): 0.00128 s⁻¹
B5: PMP 31 B4 (VHH)
VHH: B1 VHH
notes: also called PMP31B4(t)

koff (Human soluble IL6-R [1]): 0.00125 s⁻¹
B6: PMP 31 C8 (VHH)
VHH: B1 VHH
notes: also called PMP31C8(t)

koff (Human soluble IL6-R [1]): 0.00128 s⁻¹
B7: PMP 32 H5 (VHH)
VHH: B1 VHH
notes: also called PMP32H5(t)

koff (Human soluble IL6-R [1]): 0.00126 s⁻¹
B8: PMP 28 F7 (VHH)
VHH: B1 VHH
notes: also called PMP28F7(t)

koff (Human soluble IL6-R [1]): 0.00123 s⁻¹
B9: PMP 31 F4 (VHH)
VHH: B1 VHH
notes: also called PMP31F4(t)

koff (Human soluble IL6-R [1]): 0.00131 s⁻¹
B10: PMP 28 C7 (VHH)
VHH: B1 VHH with G56D, S57N
notes: also called PMP28C7(t)

koff (Human soluble IL6-R [1]): 0.00193 s⁻¹
B11: PMP 28 G3 (VHH)
VHH: EVQLVESGGGLVQAGGSLRLSCTASGNIFSTETMGWYRQPPGKQRDVVATITHGGTTNYADSVKGRFTISRDNRKNTVYLQMNSLKPEDTGVYYCNARSSWYSPEYWGQGTQVTVSS

Kd (Human soluble IL6-R [2]): 0.4 nM
koff (Human soluble IL6-R [2]): 0.000128 s⁻¹
kon (Human soluble IL6-R [2]): 320000 M⁻¹ s⁻¹
B12: IL6R81 (VHH)
VHH: EVQLVESGGGLVQPGGSLRLSCAASGFTFDDYGMSWVRQAPGRATEWVSAISWNGNNTYYTESMKGRFTISRDNAKNTVYLQMNSLRPEDTAVYYCVKGSTAIVGVPPTYPDEYDYWGQGTLVTVSS
notes: Humanized variant of IL6R13

koff (Human soluble IL6-R [2]): 0.00192 s⁻¹
B13: IL6R90 (VHH)
VHH: B12 VHH with R43K, T45L, V79L
notes: Humanized variant of IL6R13

koff (Human soluble IL6-R [1]): 0.00308 s⁻¹
B14: PMP 33 C10 (VHH)
VHH: B12 VHH with R43K, A44G, T45L, N56G, N57S, R87K, L122Q
notes: also called PMP33C10(t)

koff (Human soluble IL6-R [2]): 0.00206 s⁻¹
B15: IL6R85 (VHH)
VHH: B12 VHH with A44G, T45L, V79L
notes: Humanized variant of IL6R13

Kd (Human soluble IL6-R [2]): 5.07 nM
koff (Human soluble IL6-R [2]): 0.00314 s⁻¹
kon (Human soluble IL6-R [2]): 619000 M⁻¹ s⁻¹
B16: IL6R82 (VHH)
VHH: B12 VHH with R43K, A44G, T45L
notes: Humanized variant of IL6R13

Kd (Human soluble IL6-R [2]): 0.34 nM
koff (Human soluble IL6-R [2]): 0.00012 s⁻¹
kon (Human soluble IL6-R [2]): 350000 M⁻¹ s⁻¹
B17: IL6R83 (VHH)
VHH: B12 VHH with V79L
notes: Humanized variant of IL6R13

koff (Human soluble IL6-R [1]): 0.00268 s⁻¹
B18: PMP 30 A10 (VHH)
VHH: B12 VHH with R43K, A44G, T45L, N56G, N57S, R87K, L122Q
notes: also called PMP30A10(t)

Kd (Human soluble IL6-R [2]): 5.36 nM
koff (Human soluble IL6-R [2]): 0.00409 s⁻¹
kon (Human soluble IL6-R [2]): 762000 M⁻¹ s⁻¹
B19: IL6R84 (VHH)
VHH: B12 VHH with R43K, A44G, T45L, V79L
notes: Humanized variant of IL6R13

koff (Human soluble IL6-R [2]): 0.000105 s⁻¹
B20: IL6R87 (VHH)
VHH: B12 VHH with R43K, V79L
notes: Humanized variant of IL6R13

koff (Human soluble IL6-R [2]): 0.0017 s⁻¹
B21: IL6R86 (VHH)
VHH: B12 VHH with T45L, V79L
notes: Humanized variant of IL6R13

koff (Human soluble IL6-R [2]): 0.00019 s⁻¹
B22: IL6R89 (VHH)
VHH: B12 VHH with A44G, V79L
notes: Humanized variant of IL6R13

koff (Human soluble IL6-R [1]): 0.0005 s⁻¹
B23: PMP 33 A2 (VHH)
VHH: EVQLVESGGGLVQPGGSLRLSCAASGFSLDYYAIGWFRQAPGKEREGVSCMDSSGGTTSTYYSDSVKGRFTISRDDAKNTVYLQMNSLKPEDTAVYYCAADGHLNWGQRYVPCSQISWRGWNDYWGQGTQVTVSS
notes: also called PMP33A2(t)

koff (Human soluble IL6-R [1]): 0.000142 s⁻¹
B24: PMP 34 F8 (VHH)
VHH: B23 VHH with G55D, S59N, V95S, R109P
notes: also called PMP34F8(t)

koff (Human soluble IL6-R [1]): 0.00367 s⁻¹
B25: PMP 34 C11 (VHH)
VHH: EVQLVESGGGLVQPGGSLRLSCAAAGFTLDYSAIGWFRQAPGKEREMFSCISGSDGSTWYADSVAGRFTISFDNAKNTVYLQMNSLKPEDTGLYICAVTGGVRGPCAYEYEYWGQGTQVTVSS

Kd (Human soluble IL6-R [2]): 0.22 nM
koff (Human soluble IL6-R [2]): 0.000153 s⁻¹
kon (Human soluble IL6-R [2]): 703000 M⁻¹ s⁻¹
B26: IL6R71 (VHH)
VHH: EVQLVESGGGLVQPGGSLRLSCAASGFTFDDYDIGWFRQAPGKGREGVSGISSSDGNTYYADSVKGRFTISSDNAKNTVYLQMNSLRPEDTAVYYCAAEPPDSSWYLDGSPEFFKYWGQGTLVTVSS
notes: Humanized variant of IL6R04

Kd (Human soluble IL6-R [2]): 0.33 nM
koff (Human soluble IL6-R [2]): 0.00018 s⁻¹
kon (Human soluble IL6-R [2]): 543000 M⁻¹ s⁻¹
B27: IL6R72 (VHH)
VHH: B26 VHH with D30S
notes: Humanized variant of IL6R04

Kd (Human soluble IL6-R [2]): < 0.1 nM
koff (Human soluble IL6-R [2]): < 0.0001 s⁻¹
kon (Human soluble IL6-R [2]): 1e+06 M⁻¹ s⁻¹
B28: IL6R75 (VHH)
VHH: B26 VHH with D30S, S72R, V79L
notes: Humanized variant of IL6R04

Kd (Human soluble IL6-R [2]): 0.16 nM
koff (Human soluble IL6-R [2]): 0.000122 s⁻¹
kon (Human soluble IL6-R [2]): 767000 M⁻¹ s⁻¹
B29: IL6R74 (VHH)
VHH: B26 VHH with V79L
notes: Humanized variant of IL6R04

koff (Human soluble IL6-R [1]): 0.000281 s⁻¹
B30: PMP 31 D2 (VHH)
VHH: B26 VHH with P14A, D33A, G44E, R87K, S104N, Y116F, L122Q
notes: also called PMP31D2(t)

koff (Human soluble IL6-R [1]): 0.000111 s⁻¹
B31: PMP 31 C5 (VHH)
VHH: EVQLVESGGGLVQAGGSLRLSCAASGFTFDDYAIGWFRQAPGKEREGVSCISSSDGSTYYADSVKGRFTISSDNAKNTVYLLMNSLKPEDTAVYYCAAEPPDSMWSLDGSPEFFKFWGQGTQVTVSS
notes: also called PMP31C5(t)

Kd (Human soluble IL6-R [2]): 0.33 nM
koff (Human soluble IL6-R [2]): 0.000233 s⁻¹
kon (Human soluble IL6-R [2]): 698000 M⁻¹ s⁻¹
B32: IL6R73 (VHH)
VHH: B26 VHH with S72R
notes: Humanized variant of IL6R04

koff (Human soluble IL6-R [1]): 0.00058 s⁻¹
B33: PMP 32 F10 (VHH)
VHH: B31 VHH with V48I, L82Q, M104S, S106I
notes: also called PMP32F10(t)

koff (Human soluble IL6-R [1]): 0.000331 s⁻¹
B34: PMP 34 D2 (VHH)
VHH: EVQLVESGGGLVQPGGSLRLSCAASGFTLDYFAIGWFRQAPGKERERVSCISSSDGSTYYADSVKGRFTISRDNAKNTVYLQMNSLKPEDTAVYYCATDRSVYYCSGGAPEEYYWGQGTQVTVSS
notes: also called PMP34D2(t)

koff (Human soluble IL6-R [1]): 0.00119 s⁻¹
B35: PMP 33 G3 (VHH)
VHH: B34 VHH with D30G, R47G, T58A, I70V
notes: also called PMP33G3(t)

koff (Human soluble IL6-R [1]): 0.00168 s⁻¹
B36: PMP 34 A5 (VHH)
VHH: B34 VHH with D30G, R47G, I70V
notes: also called PMP34A5(t)

koff (Human soluble IL6-R [1]): 0.001 s⁻¹
B37: PMP 30 B1 (VHH)
VHH: B34 VHH with F32Y, F37W, E44G, R47G, S54G, Y59N
notes: also called PMP30B1(t)

Kd (Human soluble IL6-R [2]): 2 nM
koff (Human soluble IL6-R [2]): 0.0017 s⁻¹
kon (Human soluble IL6-R [2]): 850000 M⁻¹ s⁻¹
B38: IL6R61 (VHH)
VHH: EVQLVESGGGLVQPGGSLRLSCAASGSIFKVNAMGWYRQAPGKGRELVAGIISGGSTNYADSVKGRLTISRDNAKNTVYLQMNSLRPEDTAVYYCSFVTTNSDYDLGRDYWGQGTLVTVSS
notes: Humanized variant of IL6R03

koff (Human soluble IL6-R [2]): 0.001 s⁻¹
B39: IL6R64 (VHH)
VHH: B38 VHH with S96A
notes: Humanized variant of IL6R03

Kd (Human soluble IL6-R [2]): 4 nM
koff (Human soluble IL6-R [2]): 0.00235 s⁻¹
kon (Human soluble IL6-R [2]): 600000 M⁻¹ s⁻¹
B40: IL6R65 (VHH)
VHH: B38 VHH with L67F, V78L, S96A
notes: Humanized variant of IL6R03

Kd (Human soluble IL6-R [2]): 3.69 nM
koff (Human soluble IL6-R [2]): 0.00365 s⁻¹
kon (Human soluble IL6-R [2]): 990000 M⁻¹ s⁻¹
B41: IL6R63 (VHH)
VHH: B38 VHH with V78L
notes: Humanized variant of IL6R03

Kd (Human soluble IL6-R [2]): 2.22 nM
koff (Human soluble IL6-R [2]): 0.00207 s⁻¹
kon (Human soluble IL6-R [2]): 929000 M⁻¹ s⁻¹
B42: IL6R62 (VHH)
VHH: B38 VHH with L67F
notes: Humanized variant of IL6R03

koff (Human soluble IL6-R [1]): 0.00164 s⁻¹
B43: PMP 30 G11 (VHH)
VHH: EVQLVESGGGLVQPGGSLRLSCVASGFSLDYYVIGWFRQAPGKEREGVSCISSSDGSTYYADSVKGRFTISRDNAKNTVYLQMNSLKPEDTAVYYCAADLLRTPEFCVDSAPYDYWGQGTQVTVSS
notes: also called PMP30G11(t)

koff (Human soluble IL6-R [1]): 0.000435 s⁻¹
B44: PMP 34 C3 (VHH)
VHH: B43 VHH with Q118R
notes: also called PMP34C3(t)

koff (Human soluble IL6-R [1]): 0.000842 s⁻¹
B45: PMP 30 B6 (VHH)
VHH: B43 VHH with V23A, S28T, G47A, S49A, G56R, V79G, V108S
notes: also called PMP30B6(t)

koff (Human soluble IL6-R [1]): 0.00257 s⁻¹
B46: PMP 30 A2 (VHH)
VHH: B43 VHH with V23A, S28T, S52G, G56D, V108T
notes: also called PMP30A2(t)
